B1: CPEB3 Ribozyme (parent)
chain: UAACAGGGGGCCACAGCAGAAGCGUUCACGUCGCAGCCCCUGUCAGAUUCUGGUGAAUCUGCGAAUUCUGCUGUAUAUCUC

Variants of: B1
Assay: self-cleavage, relative activity (ratio to wild type); higher = more cleavage; in vitro, sequencing
Summary of the method: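 After error-prone PCR and barcoding, CPEB3 ribozyme mutant libraries were transcribed with T7 RNA polymerase at 37°C for 5 hours, then given 15 min with DNase I before an EDTA stop, and they cleaved during both steps. Reverse transcription with template switching preceded Illumina sequencing. Relative activity divides a variant's cleaved/total read fraction by the unmutated ribozyme's. At least 5 reads were required per variant, and three batches were averaged.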

Row | Variant | self-cleavage
1 | G30C A56G | 0.16
2 | G30A C71U | 0.18
3 | G30A A56G | 0.37
4 | G30A A56U | 0.37
5 | U31A A64U | 0.29
6 | U31A A64C | 0.14
7 | U31A A64G | 0.39
8 | G30A U74A | 0.29
9 | G30A G61C | 0.24
10 | G30U G52A | 0.17
11 | G30A G46A | 0.15
12 | G30A A75G | 0.26
13 | G30U C62A | 0.08
14 | U31A C39U | 0.34
15 | G30C U67A | 0.18
16 | G30C U67G | 0.09
17 | G30U A77G | 0.16
18 | U31A C50U | 0.41
19 | G30U U49A | 0.35
20 | G30U U49C | 0.42
21 | G30U G42A | 0.23
22 | G30A U72A | 0.2
23 | G30A U72C | 0.33
24 | U31A C38U | 0.53

Row | Variant | self-cleavage
25 | G30A G52A | 0.21
26 | G30A U43A | 0.24
27 | G30A U43C | 0.24
28 | G30A U54C | 0.43
29 | G30C C62U | 0.06
30 | G30U U31C | 0.43
31 | G30U G33A | 0.24
32 | G30U U72G | 0.15
33 | G30U U72A | 0.22
34 | G30U U72C | 0.08
35 | G30U U41G | 0.13
36 | G30U U41C | 0.27
37 | G30U U41A | 0.16
38 | G30C C40U | 0.23
39 | G30C U54A | 0.22
40 | G30U C40U | 0.2
41 | U31A A35G | 1.25
42 | U31A A35C | 0.27
43 | U31A A35U | 0.3
44 | G30A G63U | 0.13
45 | G30A U66A | 0.23
46 | G30A U66C | 0.32
47 | G30U A35G | 0.05
48 | G30U U54C | 0.14

Row | Variant | self-cleavage
49 | G30U A57G | 0.13
50 | G30U A57U | 0.14
51 | G30A A45U | 0.32
52 | G30C G73A | 0.11
53 | G30A C39U | 0.21
54 | G30A A77U | 0.33
55 | G30A A77G | 0.4
56 | G30U C79G | 0.12
57 | G30A A57G | 0.29
58 | G30U U78C | 0.09
59 | G30C U76A | 0.17
60 | G30U G70C | 0.15
61 | U31A C44U | 0.23
62 | G30C A57G | 0.25
63 | G30A U31A | 0.32
64 | G30A U31G | 0.21
65 | G30A U31C | 0.35
66 | G30C A64U | 0.2
67 | G30C U49C | 0.08
68 | G30A A64U | 0.34
69 | G30A A64G | 0.43
70 | G30A U58A | 0.09
71 | G30A U58C | 0.16
72 | G30C U41C | 0.28

Row | Variant | self-cleavage
73 | G30C U60A | 0.13
74 | G30C U60C | 0.12
75 | G30C U72G | 0.16
76 | G30C U72A | 0.13
77 | G30C A75G | 0.12
78 | G30U A45G | 0.28
79 | G30U | 0.25
80 | G30C | 0.28
81 | U31A C40U | 0.27
82 | U31A C59G | 0.19
83 | U31A C59U | 0.37
84 | U31A C59A | 0.17
85 | G30A U41G | 0.4
86 | G30A U41A | 0.14
87 | G30A U41C | 0.22
88 | G30A U60C | 0.15
89 | G30A U60A | 0.08
90 | G30A U60G | 0.34
91 | G30U A65G | 0.25
92 | U31A C62U | 0.26
93 | U31A C62A | 0.28
94 | G30A U80A | 0.22
95 | G30A U80C | 0.41
96 | G30C U31C | 0.26

Row | Variant | self-cleavage
97 | G30A U51G | 0.1
98 | G30A U51A | 0.15
99 | G30A C34G | 0.38
100 | G30U A64G | 0.23
101 | U31A | 0.56
102 | G30A C68U | 0.12
103 | G30A C40U | 0.54
104 | U31A C32U | 0.13
105 | U31A C32G | 0.12
106 | G30U U60C | 0.15
107 | G30U U80C | 0.17
108 | G30A A47U | 0.18
109 | G30A A47G | 0.41
110 | U31A A65U | 0.37
111 | U31A A65G | 0.36
112 | G30C A65G | 0.11
113 | G30C A65U | 0.3
114 | G30C A65C | 0.11
115 | G30U U51A | 0.11
116 | G30U U51C | 0.16
117 | G30A G55A | 0.2
118 | G30A G70A | 0.39
119 | G30U A56G | 0.26
120 | G30A U67A | 0.22

Row | Variant | self-cleavage
121 | G30A U67C | 0.18
122 | G30U A47G | 0.22
123 | G30A U49G | 0.22
124 | G30A U49C | 0.16
125 | G30A U49A | 0.1
126 | G30U U76A | 0.5
127 | G30U U76C | 0.39
128 | G30A U69A | 0.23
129 | G30A U69G | 0.19
130 | G30A U69C | 0.33
131 | G30C U51C | 0.19
132 | G30A G36A | 0.4
133 | G30A G36U | 0.44
134 | G30A U78A | 0.53
135 | G30A U78C | 0.24
136 | G30A A65G | 0.38
137 | U31A C68U | 0.54
138 | U31A C34G | 0.2
139 | U31A C34U | 0.23
140 | G30C U43C | 0.25
141 | G30A U76C | 0.26
142 | G30A U76A | 0.13
143 | G30C G33U | 0.19
144 | U31A C37U | 0.16

Row | Variant | self-cleavage
145 | G30C U78C | 0.38
146 | G30C U78G | 0.2
147 | U31A A45G | 0.35
148 | U31A A45U | 0.32
149 | U31A A77U | 0.51
150 | U31A A77G | 0.32
151 | U31A A57G | 0.53
152 | G30U C38U | 0.26
153 | U31A A56U | 0.39
154 | U31A A56G | 0.48
155 | G30U U69A | 0.1
156 | U31A A75G | 0.47
157 | U31A A75U | 0.61
158 | G30C U48C | 0.16
159 | G30C A45C | 0.34
160 | G30C A45U | 0.09
161 | G30U U66A | 0.13
162 | G30A G73U | 0.46
163 | U31A A47G | 0.54
164 | U31A A47U | 0.29
165 | G30A U48G | 0.14
166 | G30A U48C | 0.27
167 | G30A U48A | 0.35

Source: the RNAGym collection of RNA variant scans (doi:10.1093/nar/gkz1192)
